Reference: publication PMC5395295

Legend:
[1] = target: Mnemiopsis collagen IV NC1 domains (collagenase-solubilised NC1 hexamer) (Mnemiopsis (endogenous in whole ctenophore tissue)); assay: SDS-PAGE under reducing and non-reducing conditions with Western blot; NC1 hexamer fractions from gel filtration; 12% gels, 5% beta-mercaptoethanol or none; for Beroe reduction in TBS with various concentrations of DTT (30 min, 37°C), alkylation with iodoacetamide, non-reducing SDS-PAGE; blot with JK-2
[2] = target: Mnemiopsis collagen IV NC1 domains (collagenase-solubilised NC1 hexamer) (Mnemiopsis (endogenous in whole ctenophore tissue)); assay: SEC; collagenase digest of whole ctenophore tissue on Superdex 200 10/300 GL; elution compared with native, purified placental basement membrane NC1 hexamer run successively; fractions 12 mL to 16.4 mL blotted with NC1-specific monoclonal antibody (JK-2)
[3] = target: Beroe collagen IV NC1 domains (collagenase-solubilised NC1 hexamer) (Beroe (endogenous in whole ctenophore tissue)); assay: SDS-PAGE under reducing and non-reducing conditions with Western blot; NC1 hexamer fractions from gel filtration; 12% gels, 5% beta-mercaptoethanol or none; for Beroe reduction in TBS with various concentrations of DTT (30 min, 37°C), alkylation with iodoacetamide, non-reducing SDS-PAGE; blot with JK-2
[4] = target: Beroe collagen IV NC1 domains (collagenase-solubilised NC1 hexamer) (Beroe (endogenous in whole ctenophore tissue)); assay: SEC; collagenase digest of whole ctenophore tissue on Superdex 200 10/300 GL; elution compared with native, purified placental basement membrane NC1 hexamer run successively; fractions 12 mL to 16.4 mL blotted with NC1-specific monoclonal antibody (JK-2)
[5] = target: Pleurobrachia collagen IV NC1 domains (collagenase-solubilised NC1 hexamer) (Pleurobrachia (endogenous in whole ctenophore tissue)); assay: SDS-PAGE under reducing and non-reducing conditions with Western blot; NC1 hexamer fractions from gel filtration; 12% gels, 5% beta-mercaptoethanol or none; for Beroe reduction in TBS with various concentrations of DTT (30 min, 37°C), alkylation with iodoacetamide, non-reducing SDS-PAGE; blot with JK-2
[6] = target: Pleurobrachia collagen IV NC1 domains (collagenase-solubilised NC1 hexamer) (Pleurobrachia (endogenous in whole ctenophore tissue)); assay: SEC; collagenase digest of whole ctenophore tissue on Superdex 200 10/300 GL; elution compared with native, purified placental basement membrane NC1 hexamer run successively; fractions 12 mL to 16.4 mL blotted with NC1-specific monoclonal antibody (JK-2)

Mnemiopsis collagen IV NC1 domains (collagenase-solubilised NC1 hexamer)
stoichiometry N [1]: 2
stoichiometry N [2]: 6

Beroe collagen IV NC1 domains (collagenase-solubilised NC1 hexamer)
stoichiometry N [3]: 2
stoichiometry N [4]: 6

Pleurobrachia collagen IV NC1 domains (collagenase-solubilised NC1 hexamer)
stoichiometry N [5]: 2
stoichiometry N [6]: 6
